This passage reports stoichiometry N results from publication doi:10.1101/2022.03.13.484121.

In general, stoichiometry N refers to the number of molecules, sites or subunits per partner or assembly.

The target of assay [1] is meprin α R372T, mature (activated) form (human (from the printed accession)) (UniProt Q16819). In words: MALDI-TOF mass spectrometry.
For assay [2], the target named is pro-meprin α C308A (human (from the printed accession)) (UniProt Q16819). The assay is described as follows: SEC-MALS. On the technique in general: In gel filtration, larger molecules generally elute earlier.

In assay [1], “meprin α R372T, mature (activated) form (from UniProt Q16819 22-600) (enzyme)” returned a stoichiometry N of 2. In assay [2], “pro-meprin α C308A (from UniProt Q16819 22-600) (enzyme)” came in with a stoichiometry N of 2.
